In patent publication US20070077617:

Target: fusion protein PRV
Sequence (chain, as listed by the source): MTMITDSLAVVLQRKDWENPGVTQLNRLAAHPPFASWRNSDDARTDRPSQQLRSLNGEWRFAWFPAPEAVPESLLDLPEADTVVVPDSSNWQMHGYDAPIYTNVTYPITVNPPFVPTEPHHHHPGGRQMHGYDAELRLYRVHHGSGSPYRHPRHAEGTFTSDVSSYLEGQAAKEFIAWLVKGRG

B1: OmpT protease variant OmpT D97V (protein)
chain: STETLSFTPDNINADISLGTLSGKTKERVYLAEEGGRKVSQLDWKFNNAAIIKGAINWDLMPQISIGAAGWTTLGSRGGNMVDQDWMDSSNPGTWTVESRHPDTQLNYANEFDLNIKGWLLNEPNYRLGLMAGYQESRYSFTARGGSYIYSSEEGFRDDIGSFPNGERAIGYKQRFKMPYIGLTGSYRYEDFELGGTFKYSGWVESSDNDEHYDPGKRITYRSKVKDQNYYSVAVNAGYYVTPNAKVYVEGAWNRVTNKKGNTSLYDHNNNTSDYSKNGAGIENYNFITTAGLKYTF
relative cleavage efficiency: less than 3.0%

B2: OmpT protease variant OmpT D97F (protein)
chain: STETLSFTPDNINADISLGTLSGKTKERVYLAEEGGRKVSQLDWKFNNAAIIKGAINWDLMPQISIGAAGWTTLGSRGGNMVDQDWMDSSNPGTWTFESRHPDTQLNYANEFDLNIKGWLLNEPNYRLGLMAGYQESRYSFTARGGSYIYSSEEGFRDDIGSFPNGERAIGYKQRFKMPYIGLTGSYRYEDFELGGTFKYSGWVESSDNDEHYDPGKRITYRSKVKDQNYYSVAVNAGYYVTPNAKVYVEGAWNRVTNKKGNTSLYDHNNNTSDYSKNGAGIENYNFITTAGLKYTF
relative cleavage efficiency: < 3%

B3: OmpT protease variant OmpT D97I (protein)
chain: STETLSFTPDNINADISLGTLSGKTKERVYLAEEGGRKVSQLDWKFNNAAIIKGAINWDLMPQISIGAAGWTTLGSRGGNMVDQDWMDSSNPGTWTIESRHPDTQLNYANEFDLNIKGWLLNEPNYRLGLMAGYQESRYSFTARGGSYIYSSEEGFRDDIGSFPNGERAIGYKQRFKMPYIGLTGSYRYEDFELGGTFKYSGWVESSDNDEHYDPGKRITYRSKVKDQNYYSVAVNAGYYVTPNAKVYVEGAWNRVTNKKGNTSLYDHNNNTSDYSKNGAGIENYNFITTAGLKYTF
relative cleavage efficiency: less than 3.0%

B4: OmpT protease variant OmpT D97P (protein)
chain: STETLSFTPDNINADISLGTLSGKTKERVYLAEEGGRKVSQLDWKFNNAAIIKGAINWDLMPQISIGAAGWTTLGSRGGNMVDQDWMDSSNPGTWTPESRHPDTQLNYANEFDLNIKGWLLNEPNYRLGLMAGYQESRYSFTARGGSYIYSSEEGFRDDIGSFPNGERAIGYKQRFKMPYIGLTGSYRYEDFELGGTFKYSGWVESSDNDEHYDPGKRITYRSKVKDQNYYSVAVNAGYYVTPNAKVYVEGAWNRVTNKKGNTSLYDHNNNTSDYSKNGAGIENYNFITTAGLKYTF
relative cleavage efficiency: less than 3.0%

B5: OmpT protease variant OmpT D97L (protein)
chain: STETLSFTPDNINADISLGTLSGKTKERVYLAEEGGRKVSQLDWKFNNAAIIKGAINWDLMPQISIGAAGWTTLGSRGGNMVDQDWMDSSNPGTWTLESRHPDTQLNYANEFDLNIKGWLLNEPNYRLGLMAGYQESRYSFTARGGSYIYSSEEGFRDDIGSFPNGERAIGYKQRFKMPYIGLTGSYRYEDFELGGTFKYSGWVESSDNDEHYDPGKRITYRSKVKDQNYYSVAVNAGYYVTPNAKVYVEGAWNRVTNKKGNTSLYDHNNNTSDYSKNGAGIENYNFITTAGLKYTF
relative cleavage efficiency: < 3%

B6: OmpT protease variant OmpT D97Q (protein)
chain: STETLSFTPDNINADISLGTLSGKTKERVYLAEEGGRKVSQLDWKFNNAAIIKGAINWDLMPQISIGAAGWTTLGSRGGNMVDQDWMDSSNPGTWTQESRHPDTQLNYANEFDLNIKGWLLNEPNYRLGLMAGYQESRYSFTARGGSYIYSSEEGFRDDIGSFPNGERAIGYKQRFKMPYIGLTGSYRYEDFELGGTFKYSGWVESSDNDEHYDPGKRITYRSKVKDQNYYSVAVNAGYYVTPNAKVYVEGAWNRVTNKKGNTSLYDHNNNTSDYSKNGAGIENYNFITTAGLKYTF
relative cleavage efficiency: < 3%

B7: OmpT protease variant OmpT D97K (protein)
chain: STETLSFTPDNINADISLGTLSGKTKERVYLAEEGGRKVSQLDWKFNNAAIIKGAINWDLMPQISIGAAGWTTLGSRGGNMVDQDWMDSSNPGTWTKESRHPDTQLNYANEFDLNIKGWLLNEPNYRLGLMAGYQESRYSFTARGGSYIYSSEEGFRDDIGSFPNGERAIGYKQRFKMPYIGLTGSYRYEDFELGGTFKYSGWVESSDNDEHYDPGKRITYRSKVKDQNYYSVAVNAGYYVTPNAKVYVEGAWNRVTNKKGNTSLYDHNNNTSDYSKNGAGIENYNFITTAGLKYTF
relative cleavage efficiency: less than 3.0%

B8: OmpT protease variant OmpT D97C (protein)
chain: STETLSFTPDNINADISLGTLSGKTKERVYLAEEGGRKVSQLDWKFNNAAIIKGAINWDLMPQISIGAAGWTTLGSRGGNMVDQDWMDSSNPGTWTCESRHPDTQLNYANEFDLNIKGWLLNEPNYRLGLMAGYQESRYSFTARGGSYIYSSEEGFRDDIGSFPNGERAIGYKQRFKMPYIGLTGSYRYEDFELGGTFKYSGWVESSDNDEHYDPGKRITYRSKVKDQNYYSVAVNAGYYVTPNAKVYVEGAWNRVTNKKGNTSLYDHNNNTSDYSKNGAGIENYNFITTAGLKYTF
relative cleavage efficiency: 3.2%

B9: OmpT protease variant OmpT D97H (protein)
chain: STETLSFTPDNINADISLGTLSGKTKERVYLAEEGGRKVSQLDWKFNNAAIIKGAINWDLMPQISIGAAGWTTLGSRGGNMVDQDWMDSSNPGTWTHESRHPDTQLNYANEFDLNIKGWLLNEPNYRLGLMAGYQESRYSFTARGGSYIYSSEEGFRDDIGSFPNGERAIGYKQRFKMPYIGLTGSYRYEDFELGGTFKYSGWVESSDNDEHYDPGKRITYRSKVKDQNYYSVAVNAGYYVTPNAKVYVEGAWNRVTNKKGNTSLYDHNNNTSDYSKNGAGIENYNFITTAGLKYTF
relative cleavage efficiency: 7.8%

B10: OmpT protease variant OmpT D97N (protein)
chain: STETLSFTPDNINADISLGTLSGKTKERVYLAEEGGRKVSQLDWKFNNAAIIKGAINWDLMPQISIGAAGWTTLGSRGGNMVDQDWMDSSNPGTWTNESRHPDTQLNYANEFDLNIKGWLLNEPNYRLGLMAGYQESRYSFTARGGSYIYSSEEGFRDDIGSFPNGERAIGYKQRFKMPYIGLTGSYRYEDFELGGTFKYSGWVESSDNDEHYDPGKRITYRSKVKDQNYYSVAVNAGYYVTPNAKVYVEGAWNRVTNKKGNTSLYDHNNNTSDYSKNGAGIENYNFITTAGLKYTF
relative cleavage efficiency: < 3%

B11: OmpT protease variant OmpT D97W (protein)
chain: STETLSFTPDNINADISLGTLSGKTKERVYLAEEGGRKVSQLDWKFNNAAIIKGAINWDLMPQISIGAAGWTTLGSRGGNMVDQDWMDSSNPGTWTWESRHPDTQLNYANEFDLNIKGWLLNEPNYRLGLMAGYQESRYSFTARGGSYIYSSEEGFRDDIGSFPNGERAIGYKQRFKMPYIGLTGSYRYEDFELGGTFKYSGWVESSDNDEHYDPGKRITYRSKVKDQNYYSVAVNAGYYVTPNAKVYVEGAWNRVTNKKGNTSLYDHNNNTSDYSKNGAGIENYNFITTAGLKYTF
relative cleavage efficiency: less than 3.0%

B12: OmpT protease variant OmpT D97Y (protein)
chain: STETLSFTPDNINADISLGTLSGKTKERVYLAEEGGRKVSQLDWKFNNAAIIKGAINWDLMPQISIGAAGWTTLGSRGGNMVDQDWMDSSNPGTWTYESRHPDTQLNYANEFDLNIKGWLLNEPNYRLGLMAGYQESRYSFTARGGSYIYSSEEGFRDDIGSFPNGERAIGYKQRFKMPYIGLTGSYRYEDFELGGTFKYSGWVESSDNDEHYDPGKRITYRSKVKDQNYYSVAVNAGYYVTPNAKVYVEGAWNRVTNKKGNTSLYDHNNNTSDYSKNGAGIENYNFITTAGLKYTF
relative cleavage efficiency: less than 3.0%

B13: OmpT protease variant OmpT D97T (protein)
chain: STETLSFTPDNINADISLGTLSGKTKERVYLAEEGGRKVSQLDWKFNNAAIIKGAINWDLMPQISIGAAGWTTLGSRGGNMVDQDWMDSSNPGTWTTESRHPDTQLNYANEFDLNIKGWLLNEPNYRLGLMAGYQESRYSFTARGGSYIYSSEEGFRDDIGSFPNGERAIGYKQRFKMPYIGLTGSYRYEDFELGGTFKYSGWVESSDNDEHYDPGKRITYRSKVKDQNYYSVAVNAGYYVTPNAKVYVEGAWNRVTNKKGNTSLYDHNNNTSDYSKNGAGIENYNFITTAGLKYTF
relative cleavage efficiency: < 3%

B14: OmpT protease variant OmpT D97E (protein)
chain: STETLSFTPDNINADISLGTLSGKTKERVYLAEEGGRKVSQLDWKFNNAAIIKGAINWDLMPQISIGAAGWTTLGSRGGNMVDQDWMDSSNPGTWTEESRHPDTQLNYANEFDLNIKGWLLNEPNYRLGLMAGYQESRYSFTARGGSYIYSSEEGFRDDIGSFPNGERAIGYKQRFKMPYIGLTGSYRYEDFELGGTFKYSGWVESSDNDEHYDPGKRITYRSKVKDQNYYSVAVNAGYYVTPNAKVYVEGAWNRVTNKKGNTSLYDHNNNTSDYSKNGAGIENYNFITTAGLKYTF
relative cleavage efficiency: 5%

B15: OmpT protease variant OmpT D97S (protein)
chain: STETLSFTPDNINADISLGTLSGKTKERVYLAEEGGRKVSQLDWKFNNAAIIKGAINWDLMPQISIGAAGWTTLGSRGGNMVDQDWMDSSNPGTWTSESRHPDTQLNYANEFDLNIKGWLLNEPNYRLGLMAGYQESRYSFTARGGSYIYSSEEGFRDDIGSFPNGERAIGYKQRFKMPYIGLTGSYRYEDFELGGTFKYSGWVESSDNDEHYDPGKRITYRSKVKDQNYYSVAVNAGYYVTPNAKVYVEGAWNRVTNKKGNTSLYDHNNNTSDYSKNGAGIENYNFITTAGLKYTF
relative cleavage efficiency: < 3%

B16: OmpT protease variant OmpT D97M (protein)
chain: STETLSFTPDNINADISLGTLSGKTKERVYLAEEGGRKVSQLDWKFNNAAIIKGAINWDLMPQISIGAAGWTTLGSRGGNMVDQDWMDSSNPGTWTMESRHPDTQLNYANEFDLNIKGWLLNEPNYRLGLMAGYQESRYSFTARGGSYIYSSEEGFRDDIGSFPNGERAIGYKQRFKMPYIGLTGSYRYEDFELGGTFKYSGWVESSDNDEHYDPGKRITYRSKVKDQNYYSVAVNAGYYVTPNAKVYVEGAWNRVTNKKGNTSLYDHNNNTSDYSKNGAGIENYNFITTAGLKYTF
relative cleavage efficiency: 3%

B17: OmpT protease variant OmpT D97G (protein)
chain: STETLSFTPDNINADISLGTLSGKTKERVYLAEEGGRKVSQLDWKFNNAAIIKGAINWDLMPQISIGAAGWTTLGSRGGNMVDQDWMDSSNPGTWTGESRHPDTQLNYANEFDLNIKGWLLNEPNYRLGLMAGYQESRYSFTARGGSYIYSSEEGFRDDIGSFPNGERAIGYKQRFKMPYIGLTGSYRYEDFELGGTFKYSGWVESSDNDEHYDPGKRITYRSKVKDQNYYSVAVNAGYYVTPNAKVYVEGAWNRVTNKKGNTSLYDHNNNTSDYSKNGAGIENYNFITTAGLKYTF
relative cleavage efficiency: less than 3.0%

B18: OmpT protease variant OmpT D97A (protein)
chain: STETLSFTPDNINADISLGTLSGKTKERVYLAEEGGRKVSQLDWKFNNAAIIKGAINWDLMPQISIGAAGWTTLGSRGGNMVDQDWMDSSNPGTWTAESRHPDTQLNYANEFDLNIKGWLLNEPNYRLGLMAGYQESRYSFTARGGSYIYSSEEGFRDDIGSFPNGERAIGYKQRFKMPYIGLTGSYRYEDFELGGTFKYSGWVESSDNDEHYDPGKRITYRSKVKDQNYYSVAVNAGYYVTPNAKVYVEGAWNRVTNKKGNTSLYDHNNNTSDYSKNGAGIENYNFITTAGLKYTF
relative cleavage efficiency: < 3%
